# Source: article PMC12455665, “Convergent construction of N-terminally modified CCL5 chemokines for photoaffinity receptor pull-down using cross-aldol bioconjugations” (RSC Chemical Biology, 2025)
# B1: CCL5 P2G 1 (ligand, human, UniProt P13501 24-91, looked up)
# chain: SGYSSDTTPCCFAYIARPLPRAHIKEYFYTSGKCSNPAVVFVTRKNRQVCANPEKKWVREYINSLEMS
# notes: Human C–C chemokine ligand 5 (CCL5, RANTES), with its native N-terminal serine after traceless SUMO cleavage, point mutant P2G; also called CCL5 point mutant (P2G); CCL5 P2G variant; source: E. coli SHuffle LysY, purified (His-SUMO tag capture, SUMO protease cleavage); not shown: His, N-terminal, cleaved; SUMO, N-terminal, cleaved
# Biological target: T1, CCR5 chemokine receptor on CHO-CCR5 cells (UniProt P51681 1-352)
# T1 construct: also called the receptor; source: Chinese hamster ovary cell line (CHO), stably expressing CCR5
# T1 sequence (P51681 whole entry): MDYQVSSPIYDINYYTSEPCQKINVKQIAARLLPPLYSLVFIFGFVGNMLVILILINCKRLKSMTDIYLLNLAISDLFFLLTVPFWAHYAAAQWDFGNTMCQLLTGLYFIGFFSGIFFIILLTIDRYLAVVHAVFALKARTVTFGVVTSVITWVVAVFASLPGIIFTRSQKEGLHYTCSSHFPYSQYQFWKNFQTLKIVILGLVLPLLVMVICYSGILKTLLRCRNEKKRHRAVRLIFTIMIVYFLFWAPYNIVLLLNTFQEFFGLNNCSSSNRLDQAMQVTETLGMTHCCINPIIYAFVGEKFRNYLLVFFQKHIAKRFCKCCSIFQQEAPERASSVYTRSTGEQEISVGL
# Experiment: not stated; receptor binding of CCL5 P2G against wild-type CCL5 (Fig. S14); methods in the SI, not shown
binder,measurement,value
B1,fold reduction of binding against wild-type CCL5,3 fold
